Results on 3 proteins are retold here after publication PMC7201828, “Comparison of Inhibitor and Substrate Selectivity between Rodent and Human Vascular Adhesion Protein-1” (Mediators of Inflammation, 2020).

What all share (assay): purified protein, by the assay type
Substrate in data set [1]: NCCc1ccccc1
The settings on record: other: recombinant human VAP-1, substrate; pH 7.4; 37.0 °C.

Substrate in data set [2]: NCCc1ccc(O)cc1
The settings on record: pH 7.4, 37.0 °C.

Substrate in data set [3]: NCc1ccccc1
The settings on record: pH 7.4, 37.0 °C.

Where [4] appears, read: other: recombinant human VAP-1, substrate.
[5] abbreviates: other: recombinant rat VAP-1, substrate.
Where [6] appears, read: other: recombinant mouse VAP-1, substrate.

B1: recombinant human VAP-1 (Homo sapiens) (protein)
chain: GRGGDGGEPSQLPHCPSVSPSAQPWTHPGQSQLFADLSREELTAVMRFLTQRLGPGLVDAAQARPSDNCVFSVELQLPPKAAALAHLDRGSPPPAREALAIVFFGRQPQPNVSELVVGPLPHPSYMRDVTVERHGGPLPYHRRPVLFQEYLDIDQMIFNRELPQASGLLHHCCFYKHRGRNLVTMTTAPRGLQSGDRATWFGLYYNISGAGFFLHHVGLELLVNHKALDPARWTIQKVFYQGRYYDSLAQLEAQFEAGLVNVVLIPDNGTGGSWSLKSPVPPGPAPPLQFYPQGPRFSVQGSRVASSLWTFSFGLGAFSGPRIFDVRFQGERLVYEISLQEALAIYGGNSPAAMTTRYVDGGFGMGKYTTPLTRGVDCPYLATYVDWHFLLESQAPKTIRDAFCVFEQNQGLPLRRHHSDLYSHYFGGLAETVLVVRSMSTLLNYDYVWDTVFHPSGAIEIRFYATGYISSAFLFGATGKYGNQVSEHTLGTVHTHSAHFKVDLDVAGLENWVWAEDMVFVPMAVPWSPEHQLQRLQVTRKLLEMEEQAAFLVGSATPRYLYLASNHSNKWGHPRGYRIQMLSFAGEPLPQNSSMARGFSWERYQLAVTQRKEEEPSSSSVFNQNDPWAPTVDFSDFINNETIAGKDLVAWVTAGFLHIPHAEDIPNTVTVGNGVGFFLRPYNFFDEDPSFYSADSIYFRGDQDAGACEVNPLACLPQAAACAPDLPAFSHGGFSHN
For B1, the values for the Km in data set [1], in data set [2] (setting [4]) and in data set [3] (setting [4]) were 5510 ± 5510 µM, 299 µM and 45.3 ± 50.7 µM, respectively. Moreover, the values for the Vmax in data set [1], in data set [2] (setting [4]) and in data set [3] (setting [4]) were 7.15 µmol/min/mg, 0.40 μmoles/min/mg prot and 11.2 µmol/min/mg, respectively.

B2: recombinant rat VAP-1 (Rattus norvegicus) (protein)
chain: RSGDGGRLSQPLHCPSVLPSVQPQTHPGQSQPFADLSPEELTAVMSFLIKHLGPGLVDAAQARPSDNCVFSVELQLPAKAAALAHLDRGGPPPVREALAIIFFGGQPKPNVSELVVGPLPHPSYMRDVTVERHGGPLPYYRRPVLTREYQDIQEMIFHRELPQASGLLHHCCFYKRQGHNLLKMTTAPRGLQSGDRATWFGIYYNLSGAGFYPHPIGLELLVDHKALDPALWTIQKVFYQGRYYESLTQLEDMFEAGLVNVVLVPDNGTGGSWSLKSSVPPGRAPPLQFHPEGPRFSVQGSQVRSSLWAFSFGLGAFSGPRIFDIRFQGERVAYEISVQEAIALYGGNSPASMSTCYMDGSFGIGKYSTPLTRGVDCPYLATYVDWHFLLESQTPKTLRDAFCVFEQNQGLPLRRHHSDFYSHYFGGVVETVLVVRSVATLLNYDYVWDMVFHSNGAIEVKFHATGYITSAFFFGAGEKFGNRVAEHTLGTVHTHNAHFKVDLDVAGLKNWAWAEDLAFVPMNVPWQPEFQMQRLQVTRKLLETEEEAAFPLGNATPRYLYLASNHSNKWGHRRGYRIQILSFAGKPLPQESPIEKAFTWGRYHLAVTQRKEEEPSSSSIYNQNDPWTPTVDFTDFISNETIAGEDLVAWVTAGFLHIPHAEDIPNTVTVGNGVGFFLRPYNFFDEDPSFYSPDSIYFRKDQDVTDCEVNSLACLSQTANCVPDLPAFSHGGFTYK
B2: in data set [2] (setting [5]), the Km – broadly, the concentration of substrate that gives half-maximal velocity – came out at 8.31 µM and the Vmax is 1.19 μmoles/min/mg prot. In data set [3] (setting [5]), the Km amounted to 4.38 ± 0.361 µM and the Vmax turned out to be 20.2 µmol/min/mg.

B3: recombinant mouse VAP-1 (Mus musculus) (protein)
chain: RSGDGGGLSQPLHCPSVLPSVQPRTHPSQSQPFADLSPEELTAVMSFLTKHLGPGLVDAAQARPSDNCVFSVELQLPAKAAALAHLDRGGPPPVREALAIIFFGGQPKPNVSELVVGPLPHPSYMRDVTVERHGGPLPYYRRPVLDREYQDIEEMIFHRELPQASGLLHHCCFYKHQGQNLLTMTTAPRGLQSGDRATWFGLYYNLSGAGFYPHPIGLELLIDHKALDPALWTIQKVFYQGRYYESLTQLEDQFEAGLVNVVLVPNNGTGGSWSLKSSVPPGPAPPLQFHPQGPRFSVQGSQVSSSLWAFSFGLGAFSGPRIFDIRFQGERVAYEISVQEAIALYGGNSPASMSTCYVDGSFGIGKYSTPLIRGVDCPYLATYVDWHFLLESQAPKTLRDAFCVFEQNQGLPLRRHHSDFYSHYFGGVVGTVLVVRSVSTLLNYDYIWDMVFHPNGAIEVKFHATGYISSAFFFGAGEKFGNRVGAHTLGTVHTHSAHFKVDLDVAGLKNWAWAEDMAFVPTIVPWQPEYQMQRLQVTRKLLETEEEAAFPLGGATPRYLYLASNHSNKWGHRRGYRIQILSFAGKPLPQESPIEKAFTWGRYHLAVTQRKEEEPSSSSIFNQNDPWTPTVNFTDFISNETIAGEDLVAWVTAGFLHIPHAEDIPNTVTAGNSVGFFLRPYNFFDEDPSFHSADSIYFREGQDATACEVNPLACLSQTATCAPEIPAFSHGGFAYRDN
For B3, in data set [3] (setting [6]), the Km was 13.1 ± 11.4 µM and the Vmax was 20.1 µmol/min/mg.
